This test has as its target Xenopus histone H3/H4 tetramer (Xenopus), P84233. The test is described as follows: SEC-MALS. Conditions: remark: other sources report otherwise. Background: SEC sorts molecules by how far they enter the pores of the column.

B1: human Spt2 histone-binding domain 571–685 (hSpt2C), Q68D10 571-685 (domain or fragment)
chain: GPQRLPFPTGYKRQREYEEEDDDDDEYDSEMEDFIEDEGEPQEEISKHIREIFGYDRKKYKDESDYALRYMESSWKEQQKEEAKSLRLGMQEDLEEMRREEEEMQRRRAKKLKRR
As for B1, the stoichiometry N is 1.

B2: SUMO-tagged hSpt2C(571–685), Q68D10 571-685 (domain or fragment)
chain: B1 chain
B2 returned a stoichiometry N of 1.

For orientation: stoichiometry N means the number of molecules, sites or subunits per partner or assembly.

The values are drawn from PMC4495402.
